2 molecules from publication PMC5628404, “Central catalytic domain of BRAP (RNF52) recognizes the types of ubiquitin chains and utilizes oligo-ubiquitin for ubiquitylation” (Biochemical Journal, 2017) can be followed below.

The test addresses T1, M1-linked di-ubiquitin chain (M1-Ub2) (human, UniProt P0CG48 1-76; P0CG48 1-76).
T1 construct: ubiquitin unit 1 of 2, joined head to tail (M1 linkage); from polyubiquitin-C (UBC), human; ubiquitin unit 2 of 2, joined head to tail (M1 linkage); One polypeptide of two ubiquitin units joined by a peptide bond G76-M1; also called linear di-ubiquitin; source: E. coli KRX, purified (method of Pickart and Raasi); made in the authors' laboratory
Briefly: SPR; Biacore 3000; ubiquitin monomer or ubiquitin chains amine-coupled to a CM5 chip; BRAP as analyte, serially diluted; 10 mM HEPES-NaOH pH 7.5, 150 mM NaCl, 0.005% surfactant P20; 25°C. Particulars: both partners purified.

B1: BRAP (124–569) (RNF52 domain) (domain or fragment, human, UniProt Q7Z569 124-569, looked up)
chain: DQISFFSGNPSVEIVHGIMHLYKTNKMTSLKEDVRRSAMLCILTVPAAMTSHDLMKFVAPFNEVIEQMKIIRDSTPNQYMVLIKFRAQADADSFYMTCNGRQFNSIEDDVCQLVYVERAEVLKSEDGASLPVMDLTELPKCTVCLERMDESVNGILTTLCNHSFHSQCLQRWDDTTCPVCRYCQTPEPVEENKCFECGVQENLWICLICGHIGCGRYVSRHAYKHFEETQHTYAMQLTNHRVWDYAGDNYVHRLVASKTDGKIVQYECEGDTCQEEKIDALQLEYSYLLTSQLESQRIYWENKIVRIEKDTAEEINNMKTKFKETIEKCDNLEHKLNDLLKEKQSVERKCTQLNTKVAKLTNELKEEQEMNKCLRANQVLLQNKLKEEERVLKETCDQKDLQITEIQEQLRDVMFYLETQQKINHLPAETRQEIQEGQINIAMASA
notes: The construct had the tag, a TEV site and a GSSGSSG linker at the N-terminus; after TEV cleavage the linker probably stays on the protein (surmised); also called RNF52 domain of BRAP; central catalytic domain of BRAP; source: cell-free synthesis in E. coli S30 extract, zinc supplemented; purified (HisTrap, TEV cleavage, ion exchange, gel filtration)
For orientation: Kd means the equilibrium constant for the complex coming apart. A high value points to weaker binding. In turn, B1 came in with a Kd of 95.1 nM.

B2: BRAP (1–592) (full-length) (natural protein, human, UniProt Q7Z569 1-592, looked up)
chain: MSVSLVVIRLELAEHSPVPAGFGFSAAAGEMSDEEIKKTTLASAVACLEGKSPGEKVAIIHQHLGRREMTDVIIETMKSNPDELKTTVEERKSSEASPTAQRSKDHSKECINAAPDSPSKQLPDQISFFSGNPSVEIVHGIMHLYKTNKMTSLKEDVRRSAMLCILTVPAAMTSHDLMKFVAPFNEVIEQMKIIRDSTPNQYMVLIKFRAQADADSFYMTCNGRQFNSIEDDVCQLVYVERAEVLKSEDGASLPVMDLTELPKCTVCLERMDESVNGILTTLCNHSFHSQCLQRWDDTTCPVCRYCQTPEPVEENKCFECGVQENLWICLICGHIGCGRYVSRHAYKHFEETQHTYAMQLTNHRVWDYAGDNYVHRLVASKTDGKIVQYECEGDTCQEEKIDALQLEYSYLLTSQLESQRIYWENKIVRIEKDTAEEINNMKTKFKETIEKCDNLEHKLNDLLKEKQSVERKCTQLNTKVAKLTNELKEEQEMNKCLRANQVLLQNKLKEEERVLKETCDQKDLQITEIQEQLRDVMFYLETQQKINHLPAETRQEIQEGQINIAMASASSPASSGGSGKLPSRKGRSKRGK
notes: The construct had the tag, a TEV site and a GSSGSSG linker at the N-terminus; after TEV cleavage the linker probably stays on the protein (surmised); also called full-length BRAP; BRAP2; source: cell-free synthesis in E. coli S30 extract, zinc supplemented; purified (MBPTrap, TEV cleavage, ion exchange, gel filtration); not shown: MBP, N-terminal, cleaved
With B2, the binding result was “binds”.
